Laboratory results as given in patent US7674604 (CENTER FOR BLOOD RESEARCH, dated 2010).

Tests used:
[1] = biological target: T1, ICAM-1 purified from human tonsil, coated on 96-well plates (human, UniProt P05362 28-532); assay: competition: soluble I-domain against adhesion of K562 cells with wild-type LFA-1 (activated by mAb CBRLFA-1/2) to plate-coated ICAM-1; cells bound (% of input)
T1 construct: mature; also called immobilized ICAM-1

[2] = biological target: murine ICAM-1 (murine, UniProt P13597 28-485, limits assumed); assay: cell-based or functional assay

- IC50 (read off the curve) [1]: ~200 nM
- IC50 (read off the curve), PMA-induced homotypic aggregation of EL-4 cells (aggregation score 0 to 5) [2]: ~1000 nM
B1: recombinant soluble αL I-domain K287C/K294C (G128 to Y307) stabilized in the open conformation, made in E. coli (receptor)
chain: GNVDLVFLFDGSMSLQPDEFQKILDFMKDVMKKLSNTSYQFAAVQFSTSYKTEFDFSDYVKRKDPDALLKHVKHMLLLTNTFGAINYVATEVFREELGARPDATKVLIIITDGEATDSGNIDAAKDIIRYIIGIGKHFQTKESQETLHKFASKPASEFVCILDTFECLKDLFTELQKKIY
modifications: chain 1: disulfide between C160 and C167 (mature C287, C294)
notes: also called open I-domain; soluble open I-domain
